Test results as given in PMC12416549 (2024).

T1: TNFR1 (Homo sapiens, UniProt P19438)
T1 chain: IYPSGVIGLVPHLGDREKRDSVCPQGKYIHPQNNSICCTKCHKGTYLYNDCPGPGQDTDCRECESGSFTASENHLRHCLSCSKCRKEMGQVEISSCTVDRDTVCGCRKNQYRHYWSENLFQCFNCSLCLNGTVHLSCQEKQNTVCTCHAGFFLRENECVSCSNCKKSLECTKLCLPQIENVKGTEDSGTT

B1: L26T (designed binder)
chain: MTLQELLREEALRRAEAEAFRYALETLAEKFPEQKEYLLDLAEEIESQIRSLSGVDVEDVRKFLDKEWAWVKELLAEHPAELAEVEAARAARLAELRAEVEAKVAA
B2: A17Q (designed binder)
chain: MTLQELLREEALRRAEQEAFRYALELLAEKFPEQKEYLLDLAEEIESQIRSLSGVDVEDVRKFLDKEWAWVKELLAEHPAELAEVEAARAARLAELRAEVEAKVAA
B3: E16L (designed binder)
chain: MTLQELLREEALRRALAEAFRYALELLAEKFPEQKEYLLDLAEEIESQIRSLSGVDVEDVRKFLDKEWAWVKELLAEHPAELAEVEAARAARLAELRAEVEAKVAA
B4: R21V (designed binder)
chain: MTLQELLREEALRRAEAEAFVYALELLAEKFPEQKEYLLDLAEEIESQIRSLSGVDVEDVRKFLDKEWAWVKELLAEHPAELAEVEAARAARLAELRAEVEAKVAA
B5: E44P (designed binder)
chain: MTLQELLREEALRRAEAEAFRYALELLAEKFPEQKEYLLDLAEPIESQIRSLSGVDVEDVRKFLDKEWAWVKELLAEHPAELAEVEAARAARLAELRAEVEAKVAA
B6: D56N (designed binder)
chain: MTLQELLREEALRRAEAEAFRYALELLAEKFPEQKEYLLDLAEEIESQIRSLSGVNVEDVRKFLDKEWAWVKELLAEHPAELAEVEAARAARLAELRAEVEAKVAA
B7: E95S (designed binder)
chain: MTLQELLREEALRRAEAEAFRYALELLAEKFPEQKEYLLDLAEEIESQIRSLSGVDVEDVRKFLDKEWAWVKELLAEHPAELAEVEAARAARLASLRAEVEAKVAA
B8: A98V (designed binder)
chain: MTLQELLREEALRRAEAEAFRYALELLAEKFPEQKEYLLDLAEEIESQIRSLSGVDVEDVRKFLDKEWAWVKELLAEHPAELAEVEAARAARLAELRVEVEAKVAA
B9: G54D (designed binder)
chain: MTLQELLREEALRRAEAEAFRYALELLAEKFPEQKEYLLDLAEEIESQIRSLSDVDVEDVRKFLDKEWAWVKELLAEHPAELAEVEAARAARLAELRAEVEAKVAA
B10: E36Q (designed binder)
chain: MTLQELLREEALRRAEAEAFRYALELLAEKFPEQKQYLLDLAEEIESQIRSLSGVDVEDVRKFLDKEWAWVKELLAEHPAELAEVEAARAARLAELRAEVEAKVAA
B11: R21K (designed binder)
chain: MTLQELLREEALRRAEAEAFKYALELLAEKFPEQKEYLLDLAEEIESQIRSLSGVDVEDVRKFLDKEWAWVKELLAEHPAELAEVEAARAARLAELRAEVEAKVAA
B12: H78Y (designed binder)
chain: MTLQELLREEALRRAEAEAFRYALELLAEKFPEQKEYLLDLAEEIESQIRSLSGVDVEDVRKFLDKEWAWVKELLAEYPAELAEVEAARAARLAELRAEVEAKVAA
B13: F20L (designed binder)
chain: MTLQELLREEALRRAEAEALRYALELLAEKFPEQKEYLLDLAEEIESQIRSLSGVDVEDVRKFLDKEWAWVKELLAEHPAELAEVEAARAARLAELRAEVEAKVAA
B14: R50D (designed binder)
chain: MTLQELLREEALRRAEAEAFRYALELLAEKFPEQKEYLLDLAEEIESQIDSLSGVDVEDVRKFLDKEWAWVKELLAEHPAELAEVEAARAARLAELRAEVEAKVAA
B15: L6W (designed binder)
chain: MTLQEWLREEALRRAEAEAFRYALELLAEKFPEQKEYLLDLAEEIESQIRSLSGVDVEDVRKFLDKEWAWVKELLAEHPAELAEVEAARAARLAELRAEVEAKVAA
B16: K72I (designed binder)
chain: MTLQELLREEALRRAEAEAFRYALELLAEKFPEQKEYLLDLAEEIESQIRSLSGVDVEDVRKFLDKEWAWVIELLAEHPAELAEVEAARAARLAELRAEVEAKVAA
B17: E77W (designed binder)
chain: MTLQELLREEALRRAEAEAFRYALELLAEKFPEQKEYLLDLAEEIESQIRSLSGVDVEDVRKFLDKEWAWVKELLAWHPAELAEVEAARAARLAELRAEVEAKVAA
B18: L12I (designed binder)
chain: MTLQELLREEAIRRAEAEAFRYALELLAEKFPEQKEYLLDLAEEIESQIRSLSGVDVEDVRKFLDKEWAWVKELLAEHPAELAEVEAARAARLAELRAEVEAKVAA
B19: E86V (designed binder)
chain: MTLQELLREEALRRAEAEAFRYALELLAEKFPEQKEYLLDLAEEIESQIRSLSGVDVEDVRKFLDKEWAWVKELLAEHPAELAEVVAARAARLAELRAEVEAKVAA
B20: M1C (designed binder)
chain: CTLQELLREEALRRAEAEAFRYALELLAEKFPEQKEYLLDLAEEIESQIRSLSGVDVEDVRKFLDKEWAWVKELLAEHPAELAEVEAARAARLAELRAEVEAKVAA
B21: A15R (designed binder)
chain: MTLQELLREEALRRREAEAFRYALELLAEKFPEQKEYLLDLAEEIESQIRSLSGVDVEDVRKFLDKEWAWVKELLAEHPAELAEVEAARAARLAELRAEVEAKVAA
B22: V71M (designed binder)
chain: MTLQELLREEALRRAEAEAFRYALELLAEKFPEQKEYLLDLAEEIESQIRSLSGVDVEDVRKFLDKEWAWMKELLAEHPAELAEVEAARAARLAELRAEVEAKVAA
B23: K103S (designed binder)
chain: MTLQELLREEALRRAEAEAFRYALELLAEKFPEQKEYLLDLAEEIESQIRSLSGVDVEDVRKFLDKEWAWVKELLAEHPAELAEVEAARAARLAELRAEVEASVAA
B24: D65C (designed binder)
chain: MTLQELLREEALRRAEAEAFRYALELLAEKFPEQKEYLLDLAEEIESQIRSLSGVDVEDVRKFLCKEWAWVKELLAEHPAELAEVEAARAARLAELRAEVEAKVAA
B25: R13N (designed binder)
chain: MTLQELLREEALNRAEAEAFRYALELLAEKFPEQKEYLLDLAEEIESQIRSLSGVDVEDVRKFLDKEWAWVKELLAEHPAELAEVEAARAARLAELRAEVEAKVAA
B26: L96D (designed binder)
chain: MTLQELLREEALRRAEAEAFRYALELLAEKFPEQKEYLLDLAEEIESQIRSLSGVDVEDVRKFLDKEWAWVKELLAEHPAELAEVEAARAARLAEDRAEVEAKVAA
B27: A105T (designed binder)
chain: MTLQELLREEALRRAEAEAFRYALELLAEKFPEQKEYLLDLAEEIESQIRSLSGVDVEDVRKFLDKEWAWVKELLAEHPAELAEVEAARAARLAELRAEVEAKVTA
B28: L41M (designed binder)
chain: MTLQELLREEALRRAEAEAFRYALELLAEKFPEQKEYLLDMAEEIESQIRSLSGVDVEDVRKFLDKEWAWVKELLAEHPAELAEVEAARAARLAELRAEVEAKVAA
B29: L3T (designed binder)
chain: MTTQELLREEALRRAEAEAFRYALELLAEKFPEQKEYLLDLAEEIESQIRSLSGVDVEDVRKFLDKEWAWVKELLAEHPAELAEVEAARAARLAELRAEVEAKVAA
B30: E16D (designed binder)
chain: MTLQELLREEALRRADAEAFRYALELLAEKFPEQKEYLLDLAEEIESQIRSLSGVDVEDVRKFLDKEWAWVKELLAEHPAELAEVEAARAARLAELRAEVEAKVAA
B31: V57Y (designed binder)
chain: MTLQELLREEALRRAEAEAFRYALELLAEKFPEQKEYLLDLAEEIESQIRSLSGVDYEDVRKFLDKEWAWVKELLAEHPAELAEVEAARAARLAELRAEVEAKVAA
B32: I49W (designed binder)
chain: MTLQELLREEALRRAEAEAFRYALELLAEKFPEQKEYLLDLAEEIESQWRSLSGVDVEDVRKFLDKEWAWVKELLAEHPAELAEVEAARAARLAELRAEVEAKVAA
B33: V100P (designed binder)
chain: MTLQELLREEALRRAEAEAFRYALELLAEKFPEQKEYLLDLAEEIESQIRSLSGVDVEDVRKFLDKEWAWVKELLAEHPAELAEVEAARAARLAELRAEPEAKVAA
B34: W70F (designed binder)
chain: MTLQELLREEALRRAEAEAFRYALELLAEKFPEQKEYLLDLAEEIESQIRSLSGVDVEDVRKFLDKEWAFVKELLAEHPAELAEVEAARAARLAELRAEVEAKVAA
B35: S47N (designed binder)
chain: MTLQELLREEALRRAEAEAFRYALELLAEKFPEQKEYLLDLAEEIENQIRSLSGVDVEDVRKFLDKEWAWVKELLAEHPAELAEVEAARAARLAELRAEVEAKVAA

Target: T1, TNFR1
Experiment: yeast display SC50

| Binder | apparent Kd (screen) |
| --- | --- |
| B1 | 0.49 nM |
| B2 | 0.277 nM |
| B3 | 0.593 nM |
| B4 | 0.718 nM |
| B5 | 1.16 nM |
| B6 | 0.653 nM |
| B7 | 0.539 nM |
| B8 | 0.49 nM |
| B9 | 13.8 nM |
| B10 | 0.49 nM |
| B11 | 0.593 nM |
| B12 | 0.653 nM |
| B13 | 0.593 nM |
| B14 | 0.49 nM |
| B15 | 3.99 nM |
| B16 | 0.539 nM |
| B17 | 0.539 nM |
| B18 | 0.539 nM |

| Binder | apparent Kd (screen) |
| --- | --- |
| B19 | 0.956 nM |
| B20 | 0.718 nM |
| B21 | 0.718 nM |
| B22 | 0.593 nM |
| B23 | 0.539 nM |
| B24 | 0.539 nM |
| B25 | 1.16 nM |
| B26 | 0.539 nM |
| B27 | 0.869 nM |
| B28 | 0.718 nM |
| B29 | 4.83 nM |
| B30 | 1.05 nM |
| B31 | 0.49 nM |
| B32 | 2.48 nM |
| B33 | 0.593 nM |
| B34 | 0.593 nM |
| B35 | 0.49 nM |
